Results published in PMC5289644.

What was measured:
[1] = molecular target: HA-tagged intracellular part of Smβ-Int1 (Smβ-Int1 C-term) (S. mansoni)
[2] = molecular target: HA-tagged intracellular part of Smβ-Int1 (Smβ-Int1 C-term) (S. mansoni); remark: listed apart in the source

## V5-tagged SmVKR1 (wildtype venus kinase receptor 1 of S. mansoni)
[1]
  GVBD (%) of Xenopus oocytes without L-Arg; Smβ-Int1, SmILK and SmVKR1 co-expressed, no SmPINCH (Inj 10): 0%
  GVBD (%) of Xenopus oocytes without L-Arg; Smβ-Int1, SmILK, SmPINCH and SmVKR1 co-expressed (Inj 11): 80%
  GVBD (%) of Xenopus oocytes without L-Arg; Smβ-Int1, SmILK, SmPINCH, SmNck2 and SmVKR1 co-expressed, with the ILK inhibitor QLT-0267 (1 μM) (Inj 13): 0%
  GVBD (%) of Xenopus oocytes without L-Arg; Smβ-Int1, SmILK, SmPINCH, SmNck2ΔSH3 and SmVKR1 co-expressed (Inj 15): 10%
  GVBD (%) of Xenopus oocytes without L-Arg; Smβ-Int1, SmILK, SmPINCHΔLIM4 in place of SmPINCH and SmVKR1 co-expressed (Inj 14): 0%
  GVBD (%) of Xenopus oocytes without L-Arg; Smβ-Int1, SmILKΔAnk1 in place of SmILK, SmPINCH and SmVKR1 co-expressed (Inj 12): 0%
  GVBD (%) of Xenopus oocytes without L-Arg; Smβ-Int1, SmPINCH and SmVKR1 co-expressed, no SmILK (Inj 9): 0%
[2]
  GVBD (%) of Xenopus oocytes without L-Arg; Smβ-Int1, SmILK, SmPINCH, SmNck2 and SmVKR1 co-expressed (Exp 1): 90%
  GVBD (%) without L-Arg; as Exp 1 with SmILKΔAnk1 in place of SmILK (Exp 2): 0%
  GVBD (%) without L-Arg; as Exp 1 with SmNck2ΔSH3 in place of SmNck2 (Exp 5): 10%
  GVBD (%) without L-Arg; as Exp 1 with SmPINCHΔLIM1 in place of SmPINCH (Exp 4): 0%
  GVBD (%) without L-Arg; as Exp 1 with SmPINCHΔLIM4 in place of SmPINCH (Exp 3): 0%
  GVBD (%) without L-Arg; as Exp 1 with the ILK inhibitor QLT-0267 (1 μM) (Exp 7): 0%
